The assay concerns the target T1, GST–ETV1(249–477) fusion protein (UniProt P50549 249-477).
T1 construct: ETV1, C-terminal half, residues 249-477; In the MST it was labelled through an anti-GST mouse mAb coupled to Alexa Fluor 647; also called fusion between GST and the C-terminal half of ETV1 (aa 249–477); source: E. coli, purified
T1 sequence (looked up): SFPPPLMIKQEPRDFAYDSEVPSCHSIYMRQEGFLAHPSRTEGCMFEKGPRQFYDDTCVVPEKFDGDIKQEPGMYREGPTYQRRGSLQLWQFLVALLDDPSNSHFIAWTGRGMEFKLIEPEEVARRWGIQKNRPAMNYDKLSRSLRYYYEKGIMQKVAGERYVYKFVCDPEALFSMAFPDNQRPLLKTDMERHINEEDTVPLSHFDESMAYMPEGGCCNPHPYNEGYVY
Put plainly: MST; Monolith NT.115; 15 serial dilutions of peptide (starting concentration 50 μM) against 300 nM GST–ETV1(249–477) with 20 nM anti-GST mouse mAb coupled to Alexa Fluor 647; PBS with 0.05% Tween-20. The following applies: both partners purified.

Ends that are not written are not given here.

B1: triple methylated (on K505, K506, and K507; 3xme) peptide spanning JMJD2A aa 490–522 (peptide, UniProt O75164 490-522, looked up)
peptide: VNPASVGGRLVFSGSK(Me)K(Me)K(Me)SSSSLGSGSSRDSIS-NH2
modifications: N-terminus assumed
SMILES: CC[C@H](C)[C@H](NC(=O)[C@H](CO)NC(=O)[C@H](CC(=O)O)NC(=O)[C@H](CCCNC(=N)N)NC(=O)[C@H](CO)NC(=O)[C@H](CO)NC(=O)CNC(=O)[C@H](CO)NC(=O)CNC(=O)[C@H](CC(C)C)NC(=O)[C@H](CO)NC(=O)[C@H](CO)NC(=O)[C@H](CO)NC(=O)[C@H](CO)NC(=O)[C@H](CCCCNC)NC(=O)[C@H](CCCCNC)NC(=O)[C@H](CCCCNC)NC(=O)[C@H](CO)NC(=O)CNC(=O)[C@H](CO)NC(=O)[C@H](Cc1ccccc1)NC(=O)[C@@H](NC(=O)[C@H](CC(C)C)NC(=O)[C@H](CCCNC(=N)N)NC(=O)CNC(=O)CNC(=O)[C@@H](NC(=O)[C@H](CO)NC(=O)[C@H](C)NC(=O)[C@@H]1CCCN1C(=O)[C@H](CC(N)=O)NC(=O)[C@@H](N)C(C)C)C(C)C)C(C)C)C(=O)N[C@@H](CO)C(N)=O
notes: JMJD2A/KDM4A, human, residues 490-522; source: synthetic peptide (GenScript)
B1 had a Kd of 8.7 µM.

B2: unmethylated (WT) peptide spanning JMJD2A aa 490–522 (peptide, UniProt O75164 490-522, looked up)
peptide: VNPASVGGRLVFSGSKKKSSSSLGSGSSRDSIS-NH2
notes: JMJD2A/KDM4A, human, residues 490-522; also called JMJD2A aa 490–522 peptide; source: synthetic peptide (GenScript)
B2 gave a Kd of 25.4 µM.

(Values after paper PMC10619491, “SET7/9-mediated methylation affects oncogenic functions of histone demethylase JMJD2A” (JCI Insight, 2023).)
